Source: patent publication US12365732 (23ANDME, dated 2025)

B1: 10G1 (clone 10G1.3G8), purified hybridoma antibody (antibody, V domains shown)
VH: QIQLVQSGPELKKPGETVKISCKASGYPFTTYGMSWVKQAPGKGLKWMGWINTDSGVPTYADDFKGRFAFSLETSANTAYLQINSLKNEDAATYFCARNIYYGWGNFDYWGQGTILTVSS
VL: DILMTQSPTTLSVTPGETVSLSCRASQDIYRNLHWYQQKSQGTPRLLIKHASDSISGIPSRFTGSGSGTDFTLSINSVKPEDEGIYYCLQGYSMPYTFGGGTKLEIK
notes: murine hybridoma IgG
B2: 9H4, purified hybridoma antibody (antibody, V domains shown)
VH: EVQLLETGGGLVKSGGSLKLSCAASGFTFSDYYMYWVRQTPEKRLEWVAAISDDGTYTYYPDSVKGRFTISRDNANNYLYLQMSSLKSEDTAIYYCAKAGSYDYFDVWGAGTTVTVSS
VL: DIVLTQSPASLAVSLGQRAIISCKASQSVTFADTGLMHWYQQKPGQQPKLLIYRASNLEVGVPTRFSGSGSGTDFTLNIHPVEEEDVATYYCQQSREYPWTFGGGTKLEIK
notes: murine hybridoma IgG
B3: 7E5, purified hybridoma antibody (antibody, V domains shown)
VH: QVQLKESGPGLVAPSQSLSIICTVSGFSLTNYGIHWIRQPPGKGLEWLGIIWAGGSTNYNSALMSRLTISKDNSKSQVFLKMNSLQTNDTAIYYCARVSMMGFAYWGQGTLVTVSA
VL: QAVVTQESALTTSPGETVTLTCRSSTGAVTTSNYANWVQEKPDHLFTGLIGGTNNRAPGVPARFSGSLIGDKAALTITGAQTEDEAIYFCSLWYGSHWVFGGGTKLTVL
notes: murine hybridoma IgG
B4: mAb1.v7 IgG (humanized 12F8) (antibody, V domains shown)
VH: EVQLVQSGAEVKKPGASVKVSCKASGFTFTNNWMHWVRQAPGQGLEWIGMIHPNSGITNINEKFKNRVTMTTDTSTSTAYMELRSLRSEDTAVYYCRSDGTYEGYFDYWGQGTLVTVSS
VL: DIQLTQSPSSLSASVGDRVTITCKASQNVGTAIVWYQQKPGKAPKVLIYSASTRYTGVPSRFSGSGSGTDFTLTISSLQPEDFATYYCQQYSSSPLTFGQGTKVEIKG
notes: human IgG1 N297G
B5: mAb1.v7.NGS9 IgG (antibody, V domains shown)
VH: EVQLVQSGAEVKKPGASVKVSCKASGFTFTNNFMHWVRQAPGQGLEWIGMIHANSGITNINEKFKNRVTMTTDTSTSTAYMELRSLRSEDTAVYYCRSDGVYEGYFDYWGQGTLVTVSS
VL: DIQLTQSPSSLSASVGDRVTITCKASQNVGTAIVWYQQKPGKAPKVLIYSASTRYTGVPSRFSGSGSGTDFTLTISSLQPEDFATYYCQQYSSSPLTFGQGTKVEIKG
notes: human IgG1 N297G
B6: mAb1.v7.NGS10 IgG (antibody, V domains shown)
VH: EVQLVQSGAEVKKPGASVKVSCKASGFTFTNNFMHWVRQAPGQGLEWIGFIHANSGITNINEKFKNRVTMTTDTSTSTAYMELRSLRSEDTAVYYCRSDGIYEGYFDYWGQGTLVTVSS
VL: DIQLTQSPSSLSASVGDRVTITCKASQNVGTAIVWYQQKPGKAPKVLIYSASTRYTGVPSRFSGSGSGTDFTLTISSLQPEDFATYYCQQYSSSPLTFGQGTKVEIKG
notes: human IgG1 N297G
B7: mAb1.v7.2 Fab (Fab, V domains shown)
VH: EVQLVQSGAEVKKPGASVKVSCKASGFTFTNNWRHWVRQAPGQGLEWIGMIHFNSGITNINEKFKNRVTMTTDTSTSTAYMELRSLRSEDTAVYYCRSDGVYEGYFDYWGQGTLVTVSS
VL: DIQLTQSPSSLSASVGDRVTITCKASQNVGTAIVWYQQKPGKAPKVLIYSASTRYTGVPSRFSGSGSGTDFTLTISSLQPEDFATYYCQQYSSSPLTFGQGTKVEIK
notes: also called M34R/P52aF/T97V
B8: mAb1.v7.16 Fab (Fab, V domains shown)
VH: EVQLVQSGAEVKKPGASVKVSCKASGFTFTNNWRHWVRQAPGQGLEWIGMIHPNSGITNINEKFKNRVTMTTDTSTSTAYMELRSLRSEDTAVYYCRSDGVYEGYFDYWGQGTLVTVSS
VL: DIQLTQSPSSLSASVGDRVTITCKASQNVGTAIVWYQQKPGKAPKVLIYSASTRYTGVPSRFSGSGSGTDFTLTISSLQPEDFATYYCQQYSSSPLTFGQGTKVEIK
notes: also called M34R/T97V
B9: mAb1.v7.70 Fab (Fab, V domains shown)
VH: EVQLVQSGAEVKKPGASVKVSCKASGFTFTNRWMHWVRQAPGQGLEWIGMIHANSGITNINEKFKNRVTMTTDTSTSTAYMELRSLRSEDTAVYYCRSDGVYEGYFDYWGQGTLVTVSS
VL: DIQLTQSPSSLSASVGDRVTITCKASQNVGTAIVWYQQKPGKAPKVLIYSASTRYTGVPSRFSGSGSGTDFTLTISSLQPEDFATYYCQQYSSSPLTFGQGTKVEIK
notes: also called N32R/P52aA/T97V
B10: mAb1.v7.48 Fab (Fab, V domains shown)
VH: EVQLVQSGAEVKKPGASVKVSCKASGFTFTNRWMHWVRQAPGQGLEWIGMIHHNSGITNINEKFKNRVTMTTDTSTSTAYMELRSLRSEDTAVYYCRSDGVYEGYFDYWGQGTLVTVSS
VL: DIQLTQSPSSLSASVGDRVTITCKASQNVGTAIVWYQQKPGKAPKVLIYSASTRYTGVPSRFSGSGSGTDFTLTISSLQPEDFATYYCQQYSSSPLTFGQGTKVEIK
notes: also called N32R/P52aH/T97V
B11: mAb1.v7.9 Fab (Fab, V domains shown)
VH: EVQLVQSGAEVKKPGASVKVSCKASGFTFTNNWRHWVRQAPGQGLEWIGMIHMNSGITNINEKFKNRVTMTTDTSTSTAYMELRSLRSEDTAVYYCRSDGVYEGYFDYWGQGTLVTVSS
VL: DIQLTQSPSSLSASVGDRVTITCKASQNVGTAIVWYQQKPGKAPKVLIYSASTRYTGVPSRFSGSGSGTDFTLTISSLQPEDFATYYCQQYSSSPLTFGQGTKVEIK
notes: also called M34R/P52aM/T97V

The binders below were run against T1, hu-CD96 isoform 2 on CHO cells (human, UniProt P40200 22-585) (assay: FACS, Ab 50 nM).
T1 construct: also called CHO-CD96 (isoform 2); CD96-CHOs
T1 sequence: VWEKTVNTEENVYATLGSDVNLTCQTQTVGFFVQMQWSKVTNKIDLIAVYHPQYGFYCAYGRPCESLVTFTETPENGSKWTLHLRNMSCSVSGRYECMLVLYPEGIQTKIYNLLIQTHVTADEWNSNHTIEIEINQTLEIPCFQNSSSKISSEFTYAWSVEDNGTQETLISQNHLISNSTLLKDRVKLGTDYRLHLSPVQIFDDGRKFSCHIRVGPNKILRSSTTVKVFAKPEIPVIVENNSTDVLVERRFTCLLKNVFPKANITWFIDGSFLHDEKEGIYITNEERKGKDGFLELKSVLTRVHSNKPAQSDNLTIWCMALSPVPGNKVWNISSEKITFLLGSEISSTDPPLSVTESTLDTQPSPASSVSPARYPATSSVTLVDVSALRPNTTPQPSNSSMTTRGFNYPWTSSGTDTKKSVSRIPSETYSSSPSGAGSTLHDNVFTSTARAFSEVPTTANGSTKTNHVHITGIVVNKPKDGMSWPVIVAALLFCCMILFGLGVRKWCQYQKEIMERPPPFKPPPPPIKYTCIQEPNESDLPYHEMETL
Description: Isoform 1 of hu-CD96 (Origene, catalog #RC213845) was transiently expressed in HEK293T cells following standard lipofectamine or Fugene transfection protocol. […] Cells were washed, and binding was detected by incubation with anti-mouse IgG-FITC (Biolegend, catalog #406001) for 20 minutes at 4° C. Cell binding was analyzed by flow cytometry with a CytoFLEX (Beckman Coulter). Binding curves were calculated as a percentage of cells positive for bound antibody.
Isoform 2 of hu-CD96 (DNA construct: Origene, catalog #RC221005) was expressed on a single-cell-clone-derived CHO stable cell line. Binding of the anti-CD96 antibodies to the CHO cells were determined as described above with isoform 1 of hu-CD96.

Point of comparison: B2, “% positive” value 46.2%. Against it:
- B1 — lower, 39.8%
- B3 — higher, 58.9%
- B4 — lower, 44.1%

What follows are binders tested against T1, hu-CD96 isoform 2 on CHO cells (assay: FACS, CD155-Fc-FLAG 10 nM, Ab 4 nM).
Description: (§1) CHO cells stably expressing isoform 2 of hu-CD96 (Origene, catalog #RC221005) were incubated with anti-CD96 antibodies for 20 minutes at 4° C. The cells were washed, and then incubated with 10 nM human CD155-Fc-FLAG for 30 minutes at 4° C. Cells were washed, and then human CD155-Fc-FLAG binding was detected by incubation with anti-FLAG-APC (Columbia Biosciences, catalog #D3-1718-1MG) for 20 minutes at 4° C. Cell binding was analyzed by flow cytometry with a CytoFLEX (Beckman Coulter). CD155 binding is represented as median fluorescence intensity (MedFI).
(§2) As shown in Table 20 (below), the anti-CD96 antibodies, mAb1.v7.NGS8, mAb1.v7.NGS9, mAb1.v7.NGS10, mAb1.v7.NGS11, and h10G1 inhibited soluble hu-CD155 binding to CD96-expressing CHO cells dose-dependently and potently. The antibody NK92.39 (Fuchs et al., 2004; Biolegend catalog #338405) inhibited receptor binding similarly.

Point of comparison: B5, “CD155-Fc binding (MedFI)” value 6100 MedFI. Against it:
- B6 — lower, 4940 MedFI

The binders below were run against T1, hu-CD96 isoform 2 on CHO cells (assay: FACS, CD155-Fc-FLAG 10 nM, Ab 0.8 nM).
Description: as §1, §2

Point of comparison: B5, “CD155-Fc binding (MedFI)” value 32200 MedFI. Against it:
- B6 — lower, 23600 MedFI

Target: T2, cy-CD96 (soluble, extracellular domain) (cynomolgus monkey, UniProt P40200 22-516 (human entry), biotinylated in Octet and blocking ELISA)
T2 construct: the assays name only cy-CD96; also called biotinylated cy-CD96
T2 chain: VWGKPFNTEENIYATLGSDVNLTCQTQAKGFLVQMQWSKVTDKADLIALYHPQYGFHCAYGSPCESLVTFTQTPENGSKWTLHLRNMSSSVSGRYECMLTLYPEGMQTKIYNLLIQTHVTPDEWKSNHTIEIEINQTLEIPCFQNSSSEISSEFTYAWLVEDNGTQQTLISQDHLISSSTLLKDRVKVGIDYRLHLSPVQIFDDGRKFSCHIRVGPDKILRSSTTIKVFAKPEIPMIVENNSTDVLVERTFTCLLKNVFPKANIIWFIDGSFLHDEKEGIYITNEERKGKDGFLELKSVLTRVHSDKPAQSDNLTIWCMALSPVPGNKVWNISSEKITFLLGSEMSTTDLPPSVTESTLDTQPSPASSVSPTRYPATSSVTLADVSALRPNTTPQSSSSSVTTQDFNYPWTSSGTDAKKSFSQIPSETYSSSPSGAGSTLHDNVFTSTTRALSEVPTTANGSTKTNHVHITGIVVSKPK
Test: phage competition ELISA, soluble CD96 vs coated hu-CD96
Description: 192 colonies from most stringent selections (biotinylated 0.1 nM of hu-CD96 or cy-CD96 with 1000× non-biotinylated human or cy-CD96) were grown in 400 µL 2YT with 4 µL helper phage M13KO7 overnight at 37° C. with shaking. After spinning down the pellet, the phage supernatant was diluted 1:1 with 2 nM hu-CD96, 20 nM cy-CD96 and ELISA buffer (0.5% BSA and 0.05% TWEEN®20 in PBS) in total […] and incubated for two hours at room temperature with agitation. The […] of mixture was transferred to hu-CD96 coated plate for 15 min to capture unbound phage. The plate was washed with wash buffer (0.05% TWEEN®20 in PBS), and HRP-conjugated anti-M13 antibody (Sino biological, Cat #11973-MM05-H-50) was added in ELISA buffer for 30 min. […] Enzymatic color development was stopped using TMB stop solution (VWR, Cat #95059-200). Plates were analyzed with a SpectraMax i3X plate reader (Molecular Devices). The % inhibition was calculated by the $OD450$ of wells with hu-CD96/cy-CD96 competitor divided by $OD450$ of wells with buffer alone. The lower % inhibition indicated higher phage $IC50$ against hu-CD96 or cy-CD96.
Selected top inhibition % phage variants from single spot competition were purified from culture supernatants. The optimal phage concentration was incubated with serially-diluted hu-CD96 or cy-CD96 in ELISA buffer in NUNC F plate for two hours. The […] of the mixture was transferred to hu-CD96 coated wells for 15 min to capture unbound phage. The plate was washed with wash buffer (0.05% TWEEN®20 in PBS), and HRP-conjugated anti-M13 antibody (Sino biological, Cat #11973-MM05-H-50) was added in ELISA buffer for 30 min. The plates were washed and developed as described above. The absorbance at 450 nm was plotted as a function of antigen concentration in solution to determine phage $IC50$.

Point of comparison: B8, IC50 1600 pM. Against it:
- B7 — within 1.5-fold, 1800 pM
- B9 — 4-fold lower, 400 pM
- B10 — 5.3-fold lower, 300 pM
- B11 — 4.3-fold lower, 370 pM
